Source: publication PMC4038590 (PLoS ONE, 2014)

B1: GST-VP16-TAD (Herpes simplex virus VP16 transcription activation domain, both subdomains, residues 427-485) (domain or fragment)
chain: DGEDVAMAHADALDDFDLDMLGDGDSPGPGFTPHDSAPYGALDMADFEFEQMFTDALGI
notes: source: E. coli BL21 pLysS, purified (glutathione-sepharose 4B)
B2: 6 x his-tagged Dreb2a_(168-335) (Dehydration responsive element binding protein 2A, Med25-binding domain 168-253 and activation domain 254-335) (domain or fragment, Arabidopsis thaliana, UniProt O82132 168-335, looked up)
chain: DCESKPFSGGVEPMYCLENGAEEMKRGVKADKHWLSEFEHNYWSDILKEKEKQKEQGIVETCQQQQQDSLSVADYGWPNDVDQSHLDSSDMFDVDELLRDLNGDDVFAGLNQDRYPGNSVANGSYRPESQQSGFDPLQSLNYGIPPFQLEGKDGNGFFDDLSYLDLEN
B3: Arabidopsis thaliana Med25 ACtivator Interaction Domain (aMed25-ACID), Med25_(551-680) (domain or fragment, UniProt Q7XYY2 551-680, looked up)
chain: TSQSKYVKVWEGNLSGQRQGQPVLITRLEGYRSASASDSLAANWPPTMQIVRLISQDHMNNKQYVGKADFLVFRAMSQHGFLGQLQDKKLCAVIQLPSQTLLLSVSDKACRLIGMLFPGDMVVFKPQIPN
notes: source: 15N-labelled in M9 medium for NMR
B4: GST-VP16-TADn (Herpes simplex virus VP16 N-terminal transcription activation subdomain, residues 412-452) (domain or fragment)
chain: TAPPTDVSLGDELHLDGEDVAMAHADALDDFDLDMLGDGDS
notes: as for B1

What was measured:
Conditions in all cases: both partners purified
[1] = target: B3; assay: SPR
[2] = target: T1, human Med25 ACtivator Interaction Domain (hMed25-ACID), 6 x his-tagged human Med25_(394-543) (human, UniProt Q71SY5 394-543); assay: SPR
T1 construct: source: 15N-labelled in M9 medium for NMR
T1 sequence (looked up): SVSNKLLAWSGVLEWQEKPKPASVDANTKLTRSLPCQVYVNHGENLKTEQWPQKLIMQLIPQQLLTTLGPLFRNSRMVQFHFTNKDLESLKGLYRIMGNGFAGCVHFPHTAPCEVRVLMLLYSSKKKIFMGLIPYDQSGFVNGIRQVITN

[3] = target: B3; assay: ITC
[4] = target: B2; assay: ITC

Binder | Kd [1] [nM] | Kd [2] [nM] | dH [3] [kcal/mol] | Ka [4] [M⁻¹] | Kd [4] [nM]
B1 | 1800 | 2800 | – | – | –
B2 | – | – | -21.9 | – | –
B3 | – | – | – | 328000 | 3000
B4 | 2400 | 5400 | – | – | –
